Assay results published in PMC12298772.
Several values for one entry are separate records, joined by “and”; a condition that tells them apart may be missing. Equal values may be shown once.

Assays:
Experiment in all cases: Number and Brightness (N&B) fluorescence fluctuation microscopy
[1] = target: PUUV SP-mCh2-Gc (Puumala orthohantavirus glycoprotein Gc labelled with mCherry2) (Puumala orthohantavirus (PUUV), strain Sotkamo/V-2969/81)
[2] = target: PUUV SP-mCh2-Gn (Puumala orthohantavirus glycoprotein Gn labelled with mCherry2) (Puumala orthohantavirus (PUUV), strain Sotkamo/V-2969/81)
[3] = target: PUUV YFP-NP (Puumala orthohantavirus nucleoprotein labelled with yellow fluorescent protein) (Puumala orthohantavirus (PUUV), strain Sotkamo/V-2969/81) (UniProt P27313)

PUUV SP-mCh2-Gc (Puumala orthohantavirus glycoprotein Gc labelled with mCherry2) (natural protein)
stoichiometry N [1]: < 8

PUUV SP-mCh2-Gn (Puumala orthohantavirus glycoprotein Gn labelled with mCherry2) (natural protein)
stoichiometry N [2]: < 4

PUUV YFP-NP (Puumala orthohantavirus nucleoprotein labelled with yellow fluorescent protein) (from UniProt P27313 1-433) (natural protein)
stoichiometry N [3]: < 10 and 4 and 8
